Test [1] deals with T1, SETD3 residues 20–494 (as labelled for the ITC titrations) (human, UniProt Q86TU7 20-494).
T1 construct: also called SETD3_(20–494)
T1 sequence (looked up): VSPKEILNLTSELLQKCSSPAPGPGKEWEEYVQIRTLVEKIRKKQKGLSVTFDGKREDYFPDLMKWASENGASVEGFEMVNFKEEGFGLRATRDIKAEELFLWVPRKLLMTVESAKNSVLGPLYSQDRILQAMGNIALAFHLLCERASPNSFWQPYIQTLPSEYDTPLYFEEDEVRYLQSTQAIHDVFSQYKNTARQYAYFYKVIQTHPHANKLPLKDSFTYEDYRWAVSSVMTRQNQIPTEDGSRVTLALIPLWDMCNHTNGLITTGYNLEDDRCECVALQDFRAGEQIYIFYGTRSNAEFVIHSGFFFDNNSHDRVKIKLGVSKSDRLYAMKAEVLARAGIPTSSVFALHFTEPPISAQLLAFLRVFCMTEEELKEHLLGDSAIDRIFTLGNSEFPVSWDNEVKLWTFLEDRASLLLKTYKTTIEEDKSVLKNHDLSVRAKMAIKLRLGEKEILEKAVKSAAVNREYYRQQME
Nature of the test: ITC; SETD3 titrated with actin peptide in the presence of SAH. The following applies: both partners purified.

In test [2] the target is T1, SETD3 residues 20–494 (as labelled for …). Nature of the test: ITC; SETD3 titrated with actin peptide in the presence of SFG (sinefungin). As to conditions: both partners purified. For orientation: Isothermal titration calorimetry measures the heat released or taken up as one component is titrated into another.

B1: β-actin peptide (60–81) (peptide, UniProt P60709 60-81, looked up)
peptide: SKRGILTLKYPIEHGIVTNWDD
notes: β-actin, residues 60-81; residues 66-81 were built in the structure; also called wild-type actin peptide
Broadly, the Kd is a measure of binding affinity in units of concentration. In the case of B1, the Kd was 150 nM in test [1] and 5010 nM in test [2].

B2: H73A mutant actin peptide (peptide, UniProt P60709 60-81, looked up)
peptide: SKRGILTLKYPIEAGIVTNWDD
notes: β-actin peptide with H73A; The limits 60-81 are those of the wild-type peptide; also called H73A actin peptide; H73A mutant peptide
As to B2, the Kd in test [1] was found to be 810 nM; in test [2], 1000 nM.

Source of the values: PMC6971037, “Molecular basis for histidine N3-specific methylation of actin H73 by SETD3” (Cell Discovery, 2020).
